The values that follow come from patent publication US11155602B2, “Polypeptides targeting HIV fusion” (priority 2015, dated 2021).

This assay relates to NL-Rluc virus. Kind of assay: Combinectin potency assay: antiviral EC50, NL-Rluc virus in MT-2 cells, luciferase readout. The format is cell-based, HIV-1. As to conditions: Anti-N17 Adnectin, Table 3. The method, boiled down:
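MT-2 cells infected with replication-competent NL-Rluc HIV (nef replaced by Renilla luciferase) at MOI 0.01 for 1 h, then added to threefold-diluted peptides (11 concentrations, triplicate). After 4–5 days, luciferase measured by Dual Luciferase; EC50 relative to no-peptide wells.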

B1: 125 (protein)
chain: MGHHHHHHGGVSDVPRDLEVVAATPTSLLISWEYKVHPYRYYRITYGETGGNSPVQEFTVPSVLSTATISGLKPGVDYTITVYAVTYGVQSDPISINYRTPGG
modifications: Adnectin
What is called EC50 is the concentration giving half of the maximal effect. With B1, the EC50 worked out at 4340 nM.

B2: 226 (protein)
chain: MGHHHHHHGGSVSDVPRDLEVVAATPTSLLISWEYKVHPYRYYRIIHETGGNSPVQEFTVPSVLSTATISGLKPGVDYTITVYAVTYGDDSAPISINYRTEID
modifications: Adnectin
Consider B2, for which the EC50 is 631 nM.

B3: 230 (protein)
chain: MGVSDVPRDLEVVAATPTSLLISWEYKVHPYRYYRITYGETGGNSPVQEFTVPSVLSTATISGLKPGVDYTITVYAVTYGVDSDPISINYRTDDKPSQHHHHHH
modifications: Adnectin
Turning to B3, the EC50 is 17 nM.

B4: 227 (protein)
chain: MGHHHHHHGGSVSDVPRDLEVVAATPTSLLISWEYKVHPYRYYRITYGETGGNSPVQEFTVPSVLSTATISGLKPGVDYTITVYAVTYGDDSAPISINYRKEAEL
modifications: Adnectin
B4: the EC50 was greater than 1000 nM.

B5: 124 (protein)
chain: MGVSDVPRDLEVVAATPTSLLISWEYKVHPYRYYRITYGETGGNSPVQEFTVPSVLSTAEISGLKPGVDYTITVYAVTRGVDSAPISINYRTPIDKPSQHHHHHH
modifications: Adnectin
Turning to B5, the EC50 was 6 nM.

B6: 240 (protein)
chain: MGVSDVPRDLEVVAATPTSLLISWEYKVSPYRYYRITYGETGGNSPVQEFTVPSVLSTATISGLKPGVDYTITVYAVTYGVNSIPISINYRTEIDKPSQHHHHHH
modifications: Adnectin
As to B6, the EC50 amounted to 5 nM.

B7: 244 (protein)
chain: MGVSDVPRDLEVVAATPTSLLISWEYKVDPYRYYRITYGETGGNSPVQEFTVPSVLSTATISGLKPGVDYTITVYAVTYGVDSDPISINYRTEIDKPSQHHHHHH
modifications: Adnectin
Take B7: the EC50 worked out at 58 nM.

B8: 126 (protein)
chain: MGVSDVPRDLEVVAATPTSLLISWEYKVHPYRYYRITYGETGGNSPVQEFTVPSVLSTATISGLKPGVDYTITVYAVTYGIQSPPISINYRTEIDKPSQHHHHHH
modifications: Adnectin
Regarding B8, the EC50 amounted to 8 nM.

B9: 235 (protein)
chain: MGVSDVPRDLEVVAATPTSLLISWEYKVHYDRYYRITYGETGGNSPVQEFTVPSVLSTATISGLKPGVDYTITVYAVTNGVLSSPISINYRTEIDKPSQHHHHHH
modifications: Adnectin
As to B9, the EC50 is 29 nM.

B10: 243 (protein)
chain: MGVSDVPRDLEVVAATPTSLLISWEYKVNPWRYYRITYGETGGNSPVQEFTVPSVLSTATISGLKPGVDYTITVYAVTYGVDSDPISINYRTEIDKPSQHHHHHH
modifications: Adnectin
Turning to B10, the EC50 turned out to be 48 nM.

B11: 231 (protein)
chain: MGVSDVPRDLEVVAATPTSLLISWEYKVHPYRYYRITYGETGGNSPVQEFTVPSVLSTATISGLKPGVDYTITVYAVTYGVNSIPISINYRTEIDKPSQHHHHHH
modifications: Adnectin
With B11, the EC50 came out at 10 nM.

B12: 232 (protein)
chain: MGVSDVPRDLEVVAATPTSLLISWEYKVNAYRYYRITYGETGGNSPVQEFTVPSVLSTATISGLKPGVDYTITVYAVTYGIESSPISINYRTEIDKPSQHHHHHH
modifications: Adnectin
Turning to B12, the EC50 came to 47 nM.

B13: 241 (protein)
chain: MGVSDVPRDLEVVAATPTSLLISWEYKVNPWRYYRITYGETGGNSPVQEFTVPSVLSTATISGLKPGVDYTITVYAVTYGVNSLPISINYRTEIDKPSQHHHHHH
modifications: Adnectin
In the case of B13, the EC50 turned out to be 8 nM.

B14: 236 (protein)
chain: MGVSDVPRDLEVVAATPTSLLISWEYKVNPWRYYRITYGETGGNSPVQEFTVPSVLSTATISGLKPGVDYTITVYAVTRGVDSAPISINYRTEIDKPSQHHHHHH
modifications: Adnectin
With B14, the EC50 came out at 85 nM.

B15: 239 (protein)
chain: MGVSDVPRDLEVVAATPTSLLISWQYKVHPYRWYRITYGETGGNSPVQEFTVPSVLSTATISGLKPGVDYTITVYAVTYGVNSIPISINYRTEIDKPSQHHHHHH
modifications: Adnectin
For the molecule B15, the EC50 came to 4 nM.

B16: 233 (protein)
chain: MGVSDVPRDLEVVAATPTSLLISWEYKVHPYRYYRITYGETGGNSPVQEFTVPSVLSTATISGLKPGVDYTITVYAVTDGVQSSPISINYRTEIDKPSQHHHHHH
modifications: Adnectin
With B16, the EC50 came to 55 nM.

B17: 234 (protein)
chain: MGVSDVPRDLEVVAATPTSLLISWEYKVNAYRYYRITYGETGGNSPVQEFTVPSVLSTATISGLKPGVDYTITVYAVTYGIDSSPISINYRTEIDKPSQHHHHHH
modifications: Adnectin
For B17, the EC50 stood at 20 nM.

B18: 238 (protein)
chain: MGVSDVPRDLEVVAATPTSLLISWEYKVNPWRYYRITYGETGGNSPVQEFTVPSVLSTATISGLKPGVDYTITVYAVTYGIQSPPISINYRTEIDKPSQHHHHHH
modifications: Adnectin
As for B18, the EC50 was found to be 11 nM.

B19: 213 (protein)
chain: MGHHHHHHGGSVSDVPRDLEVVAATPTSLLISWEYKVHPYRYYRITYGETGGNSPVQEFTVPSVLSTATISGLKPGVDYTITVYAVTYGDDSWPISINYRTEID
modifications: Adnectin
Regarding B19, the EC50 was greater than 1000 nM.

B20: 229 (protein)
chain: MGHHHHHHGGSVSDVPRDLEVVAATPTSLLISWEYKVDHRRYYRITYGETGGNSPVQEFTVPSVLSTATISGLKPGVDYTITVYAVTYGDDSAPISINYRTEID
modifications: Adnectin
Turning to B20, the EC50 is greater than 1000 nM.

B21: 221 (protein)
chain: MGHHHHHHGGSVSDVPRDLEVVAATPTSLLISWEYKVYGYRYYRITYGETGGNSPVQEFTVPSVLSTATISGLKPGVDYTITVYAVTYGDDSAPISINYRTEID
modifications: Adnectin
Consider B21, for which the EC50 was greater than 1000 nM.

B22: 224 (protein)
chain: MGHHHHHHGGSVSDVPRDLEVVAATPTSLLISWEYKVAYDRYYRITYGETGGNSPVQEFTVPSVLSTATISGLKPGVDYTITVYAVTYGDDSAPISINYRTEID
modifications: Adnectin
With B22, the EC50 was greater than 1000 nM.

B23: 223 (protein)
chain: MGHHHHHHGGSVSDVPRDLEVVAATPTSLLISWEYKVDYRRYYRITYGETGGNSPVQEFTVPSVLSTATISGLKPGVDYTITVYAVTYGDDSAPISINYRTEID
modifications: Adnectin
Regarding B23, the EC50 is greater than 1000 nM.

B24: 218 (protein)
chain: MGHHHHHHGGSVSDVPRDLEVVAATPTSLLISWEYKVHPYRYYRITYGETGGNSPVQEFTVPSVLSTATIRGLKPGVDYTITVYAVTYGDDSAPISINYRTEID
modifications: Adnectin
With B24, the EC50 amounted to 62 nM.

B25: 220 (protein)
chain: MGHHHHHHCGSVSDVPRDLEVVAATPTSLLISWEYKVAHNRYYRITYGETGGNSPVQEFTVPSVLSTATISGLKPGVDYTITVYAVTYGDDSAPISINYRTEID
modifications: Adnectin
For the molecule B25, the EC50 was 86 nM.

B26: 215 (protein)
chain: MGHHHHHHGGSVSDVPRDLEVVAATPTSLLISWKYDVHPYRYYRITYGETGGNSPVQEFTVPSVLSTATISGLKPGVDYTITVYAVTYGDDSAPISINYRTEID
modifications: Adnectin
On to B26, for which the EC50 was greater than 1000 nM.

B27: 214 (protein)
chain: MGHHHHHHGGSVSDVPRDLEVVAATPTSLLISWEYKVHPYRYYRITYGETGGNSPVQEFTVPSVLSTATISGLKPGVDYTITVYAVTHGDDSAPISINYRTEID
modifications: Adnectin
As for B27, the EC50 was greater than 1000 nM.

B28: 228 (protein)
chain: MGHHHHHHGGSVSDVPRDLEVVAATPTSLLISWEYKVNHQRYYRITYGETGGNSPVQEFTVPSVLSTATISGLKPGVDYTITVYAVTYGDDSAPISINYRTEID
modifications: Adnectin
B28: the EC50 is greater than 1000 nM.

B29: 219 (protein)
chain: MGHHHHHHGGSVSDVPRDLEVVAATPTSLLISWKYKVHPYRYYRITYGETGGNSPVQEFTVPSVLSTATISGLKPGVDYTITVYAVTYGDDSAPISINYRTEID
modifications: Adnectin
With B29, the EC50 was greater than 1000 nM.

B30: 222 (protein)
chain: MGHHHHHHGGSVSDVPRDLEVVAATPTSLLISWEYKVDHQRYYRITYGETGGNSPVQEFTVPSVLSTATISGLKPGVDYTITVYAVTYGDDSAPISINYRTEID
modifications: Adnectin
With B30, the EC50 was greater than 1000 nM.

B31: 216 (protein)
chain: MGHHHHHHGGSVSDVPRDLEVVAATPTSLLISWEYKVHPYRYYRITYGETGGNSPVQEFTVPSVLSTATISDLKPGVDYTITVYAVTYGDDSHPISINYRTEID
modifications: Adnectin
As to B31, the EC50 is greater than 1000 nM.

B32: 225 (protein)
chain: MGHHHHHHGGSVSDVPRDLEVVAATPTSLLISWEYKVTSYRYYRITYGETGGNSPVQEFTVPSVLSTATISGLKPGVDYTITVYAVTYGDDSAPISINYRTEID
modifications: Adnectin
As for B32, the EC50 was greater than 1000 nM.

B33: 217 (protein)
chain: MGHHHHHHGGSVSDVPRDLEVVAATPTSLLISWEYKVHPYRYYRITYGETGGNSPVQEFTVPSVLSTATISGLKPGVDYTITVYAVTRGDDSAPISINYRTEID
modifications: Adnectin
As for B33, the EC50 is greater than 1000 nM.
